Laboratory results as given in article doi:10.1101/2025.09.03.673757.

Tests used:
[1] = target: N-terminally His6-tagged Gαo E246K mutant (rat) (UniProt P59215)
[2] = target: N-terminally His6-tagged wild-type Gαo (rat) (UniProt P59215)

RGS16 domain (domain or fragment)
kGAP (single-turnover GTPase assay, 400 nM Gα, 20 nM RGS16) [1]: 1.7 min⁻¹ | kGAP (single-turnover GTPase assay, 400 nM Gα, 20 nM RGS16) [2]: 1.6 min⁻¹
